Assay results: the DeepSol protein solubility set

Experiment: soluble on expression in E. coli; label from the status in PepcDB or PDB records

Q: Which “soluble on expression in E. coli” value does the source give for “MSLRKEDKAAYRCLKAIKAGEKLTDAPAEDLPDLDLKPLEEMQNIYREHPEALQASVEIAEQCRVDVSLGQTRLPSFPTPDGTSADDYLTDICMEGLRSRFGKPDERYLRRLQYELDVIKRMKFSDYFLIVWDFMKHAHEKGIVTGPGRGSAAGSLVAYVLYITDVDPIKHHLLFERFLNPERVSMPDIDIDFPDTRRDEVIQYVQQKYGAMHVAQIITFGTLAAKAALRDVGRVFGVSPKEADQLAKLIPSRPGMTLDEARQQSPQLDKRLRESSLLQQVYSIARKIEGLPRHASTHAAGVVLSEEPLTDVVPLQEGHEGIYLTQYAMDHLEDLGLLKMDFLGLRNLTLIESITSMIEKEENIKIDLSSISYSDDKTFSLLSKGDTTGIFQLESAGMRSVLKRLKPSGLEDIVAVNALYRPGPMENIPLFIDRKHGRAPVHYPHEDLRSILEDTYGVIVYQEQIMMIASRMAGFSLGEADLLRRAVSKKKKEILDRERSHFVEGCLKKEYSVDTANEVYDLIVKFANYGFNRSHAVAYSMIGCQLAYLKAHYPLYFMCGLLTSEGHHHHHH” here?
A: Its value is “not soluble”.

Q: With “MSLRKFKSILLIDDDETSNFISEVIIKKLGITETISTVKNGVEALNFVSNNCTINCAPTCPQIIFLDLHMPVMDGFDFLKELKKQMPLYTQKFKIFVLSSSNNPADITKTKDFDVEGYIVKPLSQEKISMLLEDVAEGHHHHHH” as the sequence, how does the “soluble on expression in E. coli” value read?
A: Its value is “not soluble”.

Q: With “MSLRLGIILHGVTGRMGYNQHLVRSVLAIRDQGGIMLKSGGRLEIDPIIVGRNRDKIEQLAKRHDIARWSTDLDAALADPNDQIFFDAGTTLMRAELIGRALDAGKHVYCEKPVSDDLRTAVKLARKARASGLKHGVVQDKLFLPGLQKLALLRDSGFFGKILSVRGEFGYWVFEGDWGVPAQRPSWNYRKKDGGGIILDMLCHWRYVLDNLFGEVKAVSCLGATHISSRIDEQGRAYDCDTDDAAYATFELEGGVIAQINSSWTVRVRRDDLVTFQVDGTHGSAVAGLTKCWTQHRVNTPKPVWNPDQPQTIDFYETWDEVPDTQAFDNGFKAQWEMFLRHVAEDSPWPYGLEAGAKGVQLAELGLKSWAERRWLDVPELEEGHHHHHH” as the sequence, how does the “soluble on expression in E. coli” value read?
A: Its value is “soluble”.

Q: Which “soluble on expression in E. coli” value does the source give for “MSLRLSKTLCMAILAGSTLLAPNALMAMGGPSRVKIDWQIQGQMGMIKMNPYGLSPLTAIIMNNGYVLSDIKKNQMVKLFLNNVNSKMAKTYGGIPIFGLYPSYSKGKVSYTKTANGKSQKVIDEIYKITTPWASIEPSGRTDQRGTLFENVKVLKMDPKFSDRLYLVNNAPGKQSGKDSQSVWNNLVGGAMEWDENSNVFIIDTKGEIRWYYDNNKLMNWGNIYNRGIMISFRQNKDGALTWGFGQRYVKYDCLGREIFNRKLPAVYIDFSHAMDNMQNGHYFFNKYFASLRPDSKHVRTVCDTIIEVDENGNVVDDWRLYKILDPYRSTIIKTLDQSAVCLNIDASKVGKTLSDEELAKMDESDKFGDIAGIGRNWAHAYKGWNKEFQKYLLQPVDKNGNEWFYPVTSLTQYEPDKDSIMVYSATLEWLLILVKVSLGEPKPKIDEFNWGAKEPSVQIQFSGSGTDYQAMPFSVDQAFNPKEGHHHHHH” here?
A: The value was “not soluble”.

Q: For “MSLRMQDIERKVIEWLDQHSAKAIRLLKRLIGEKSTLGSEFNAQAVVLEKLRQFHMDIDVWEPSIKQLKQHPYFKSNRSDFHESPNIVAKKTGAGGGRSLILNGHIDVVPEGSVKDWKYEPYQAVEENGKIYGRGSTDMKGGNTALLFALEALHACDVKLKGDVLFQSVVDEECGGAGTLSAIMRGYRADGALIPEPTNMKLFIKQQGSMWFRITVKGLSAHGGTRYEGVSAIEKSMHVITAIQELEKVRNARISDPLYDNIPIPVPVNIGTISGGAWPSSVADRVVIEGRCGIAPHEKPEAVKLELENWLKDLEYHDEWFKRHPVQVEWFGAQWLPNDLPDDHPLISVLQSAYQKMKQTEPIIEASPWGTDGGLLYHAGDTPVIVFGPGETKTAHQANEYIEVEAMIESAKIIALFVMDWCGLHTDGEGHHHHHH”, which “soluble on expression in E. coli” value is on record?
A: Its value is “soluble”.

Q: For “MSLRPNHAAQSLRSRTSKTIGCMFSDVANPLYARAFRALEEHFRREGYMLLLANGLNDAEREIDIIQTFQLRGMDGVILAPGNERHPGVLDAVRRLSMPAVIYDRDLAVDADAVLFDHVAGVKAAIHHLVELGHTRIALALWQVKSRPVRRRIEGYKAAFKAAGLPVPDLILQEPTPTSSAFDDVTRLLQLPDPPTAFLAQGTHTLTSTLRAIAKQGLRVPEDVSVIGIGDTDFAQTYDPPLTVLRTPTDEVAAHAVEMLLSRLAAKGDASLSPRKALIQFDLILRESCAPVAREGHHHHHH”, which “soluble on expression in E. coli” value is on record?
A: Its value is “soluble”.

Q: Which “soluble on expression in E. coli” value does the source give for “MSLRPPQTLSRGWGDDITWVQTYEEGLFYAQKSKKPLMVIHHLEDCQYSQALKKVFAQNEEIQEMAQNKFIMLNLMHETTDKNLSPDGQYVPRIMFVDPSLTVRADIAGRYSNRLYTYEPRDLPLLIENMKKALRLIQSELEGHHHHHH” here?
A: The value was “soluble”.

Q: With “MSLRPRAQTAGTWPRVCIESVTPSVDNGRFPVKRTVGDRICVEADAFCDGHDRIAVAVLWRPADAKAWASAPMRALGNDRWRAEFPLERIGTYEFRVEAWRDVFATLHADLEKKRAANTVLPVDVQEAVAAVQAAQARSDGALAERLQTVLTRIGAQSEPLQQLAIVLEPDTAQAMALADDKPFRSEYPVTFRVESERRAAHFSSWYELFPRSQSGDASRHGTFDDVIKRLPHIRAMNFDVLYMPPIHPIGLNNRKGRNNSVTAVEGEPGSPYAIGATDGGHTEVHAELGGLEGFRRLIEAARAQGLEVALDFAIQCAPDHPWLKEHKDWFTWRADGSIPYAENPPKKYQDIVNVDFYASGAVPDLWNTLRDAVLFWVNEGVTLFRVDNPHTKPFPFWEWLIADVRGRRPDVVFLSEAFTRPKMMYRLAKCGFSQSYTYFTWRNHKHELRAYVEELNDGVPRECFRPHFFVNTPDINPLFLQTSGRNGHLIRAALATTLSGLWGMYQGFELCEATPLAPGKEEYLDSEKFQLRAWPERVPGDIVEEITRFNQLRRMHPELQSHLGTRFYQAHNDQVLYYGKFLDAGYLSRSRSMVLVAINLDPHAGQDADIEIPLWELGLPDHASVAVEDLWDGHRFAWHGKYQHIRLEATRPFALWRIRAGEGHHHHHH” as the sequence, how does the “soluble on expression in E. coli” value read?
A: Its value is “soluble”.

Q: For “MSLRQKQKEGGTYSPQDAEIIDTKLKLDQLITVADLELKDERLTRMTVMAATEKFQIMKKELPKFLQDLSSTDADLPWNRAKNRFPNIKPYNNNRVKLIADASVPGSDYINASYISGYLCPNEFIATQGPLPGTVGDFWRMVWETRAKTLVMLTQCFEKGRIRCHQYWPEDNKPVTVFGDIVITKLMEDVQIDWTIRDLKIERHGDCMTVRQCNFTAWPEHGVPENSAPLIHFVKLVRASRAHDTTPMIVHCSAGVGRTGVFIALDHLTQHINDHDFVDIYGLVAELRSERMCMVQNLAQYIFLHQCILDLLSNKGSNQPICFVNYSEGHHHHHH”, which “soluble on expression in E. coli” value is on record?
A: The value was “soluble”.

Q: For “MSLRSTAVLALLLCAGQVFALPVNSPMTKGDTKVMKCVLEVISDSLSKPSPMPVSPECLETLQGDERILSILRHQNLLKELQDLALQGAKERAQQQQEQQHSSFEDELSEVFENQSPDAKHRDAAAEVPSRDTMEKRKDSDKGQQDGFEATTEGPRPQAFPEPNEGHHHHHH”, which “soluble on expression in E. coli” value is on record?
A: Its value is “soluble”.

Q: Which “soluble on expression in E. coli” value does the source give for “MSLRTEFGRLQEHPIVDFKRGKEVTIYLNGKPVKAYEGETVAAALYAAGVRVFSRSFRWHRPRGFFCAIGKCSACMMEVDGIPNVRTCKVYVRDGMQVRTQSGMPDAEKDVFSILDDVIDKVFPHGSHYTKFTTSKKAREFMVKRMRKFTGFGNPPKAVFQGRAELEEIETDVLVIGGGPGGMSAAINAGKYGAKVLLVDENPFLGGQLVKQTHRFFGSAKERAGTRGIKIAGILEEELNSIENVEVRRETRVFGIYNGEAGAYQRLNDDEGKLLRIKAKKIVVATGAYERTLIFENNDLPGVYGAGGVQTLMNVYGIKPGNMGLIVGSGNVGLILTYQLMQAGVNVAAIVEAMPRIGGYFVHAAKVRRLGVPIYVRHTILKAIGRKSVEGAVIAQLDDRWQPIPGTEKEIKCDFICVAVGLSPTHELLYQAGCEMKFVPELGGIVPLRTRFNETSVKGLYVAGDVAGIEEATAAIMEGRIAGIHAAVTLGYGGEEAKKELDEAVKEIEEFRAGPFGERIVCGLEKCTLESEGHHHHHH” here?
A: Its value is “not soluble”.

Q: With “MSLRTILVTGASGFVGGALCRQLATLGSFAIRAASRDLGGASVAGIQAVTVADLSATTDWARALSGVDLVVHAAARVHVMKETASDSLAEFRRVNVDGTLNLARQAAAAGVRRFIFISSIKVNGESSQPGQPLRADDSPAPQDAYGVSKHEAEQGLRQLAAATGMEVVVIRPVLVYGPGVKANFHSMMRWLQRGVPLPFGAVCNRRSLVSLANLVDLVVTCIDHPRAANQTFLASDGDDVSLTQLLRALGLALGRPARLLPVPAGLLRGAVLLIGRRDLAQRLFGTLQVDIEKNRQLLGWYPPCTLEQGLNMTARSFLGARREGHHHHHH” as the sequence, how does the “soluble on expression in E. coli” value read?
A: The value was “soluble”.
